From paper PMC11401214, “A new generation of nanobody research tools using improved mass spectrometry-based discovery methods” (The Journal of Biological Chemistry, 2024) come the findings set out here.

A word on the Kd: it is the constant that tells how readily two partners part at equilibrium. Higher therefore signals a looser complex.

B1: LaTdT-10 (VHH)
VHH: DVQLVESGGRLVQDGGSLRLSCEVSGGTFDTFAMGWFRQAPGKEREFVSAITWSGGNTYYGDSVKGRFTISRNNVKRTVYLQMISLKPEDTGVYYCAADPYGSSWSPLQKEGQYDYWGQGTQVTVS
B2: LaTdT-44 (VHH)
VHH: QVQLVESGGRLVQDGGSLRLSCEVSGGTFDTFAMGWFRQAPGKEREFVSAITWSGGNTYYGDSVKGRFTISRNNVKRTVYLQMISLKPEDTGVYYCAADPYGSSWSPLQKEGQYDYWGQGTQVTVS
B3: LaTdT-1 (VHH)
VHH: DVQLVESGGGLVPAGGSLRLSCAASTSDLFSRYTMGWFRQAPGKEREFVSAITGMSSMTKYADSVKGRFTVSRDNRKATMYLQMDSLKPEDTAVYYCAAHTTTAAATPQSMGLMLKYDHWGQGTEVTVS
B4: LaTdT-38 (VHH)
VHH: QVQLVESGGGLVQAGGSLRLSCAASGRSFSGNNMGWFRQVSGTEREFVAAISWSGLITEYSGAVKGRFTISRDNAKNTLYLQMNSLKPEDTAVYSCAADGRDVQLPGRSEYDYNYWGQGTQVTVS
B5: LaTdT-2 (VHH)
VHH: DVQLVESGGGLVQAGDSLRLSCAFSGSAFDTYAMGWFRQAPGKEREFVSAITWSGGNTYYADSAKGRFTISRDDAKNTVYLQMNSLKPEDAATYYCAANRYGSSWSPLTKMGQYEHWGQGTQVTVS
B6: LaTdT-45 (VHH)
VHH: QVQLVESGGGLVQAGDSLRLSCAFSGSAFDTYAMGWFRQAPGKEREFVSAITWSGGNTYYADSAKGRFTISRDDAKNTVYLQMNSLKPEDAATYYCAANRYGSSWSPLTKMGQYEHWGQGTQVTVS
B7: LaTdT-8 (VHH)
VHH: QVQLVESGGGLVQAGDSLRLSCADAGLPYAFNHYGMAWFRQAPGKEREFVAGTSGGMTYYGDSVPDRFSFSRDNDKKTVHLHINSLKPEDTAVYYCAARLGGRYEDASDYDVWGQGTQVTVS
B8: LaTdT-39 (VHH)
VHH: QVQLVESGGGLVQAGESLQLSCAASGGTLRDAIVGWFRQARGKEREFLASITWSGLSTNYSDSVKGRFVISRANPQNTAYLQMNSLKPEDTAIYYCAAKIGAFGLADEFRTVPQYDSWGQGTQVTVS
B9: LaTdT-9 (VHH)
VHH: QVQLVESGGGLVQPGDSLMLSCVISGHTFTNFRMGWFRQAPGKEREFVAGITWLFGRTDYADSVQGRFTISRDKGKDTMYLQMDSLKPEDTGVYTCAVQSGVLAYPMREGFYDIWGQGTHVTVS
B10: LaG94-15 (VHH)
VHH: QVQLVESGGGAVQSGGSLSLSCAASGGIRSISAMTWFRQAPGREREFVAAVTRTLGTTYYTDSVKGRFTISRDSVKGTLYLRMNNMRPEDAAVYYCAARTRGFSTKVALETTDGMDYWGKGTLVTVS
B11: LaG94-18 (VHH)
VHH: QVQLVESGGGLVQAGGSLRLSCVASGRTFSTSAMAWWRQAPGKEREFVAAISWNVGTTYYPDSVKGRFTISRDKAQNAVYLQMNSLKPEDTAVYYCAARVTGYFGDQVRRADDYRYWGQGTQVTVS
B12: LaG94-3 (VHH)
VHH: QVQLVESGGGLVQAGGSLRLSCTASGGTVSSSGMGWFRQSSGNDRDFVAFITPTGPTTWYEESVNSRFTVSRDNAKNTIYLQMKSLRPEDTAIYYCAAGNIGRDSRTYPYWGQGTQVTVS
B13: LaG94-9 (VHH)
VHH: QVQLVESGGGLVQPGGSLRLSCAASGGTFDTHTMGWFRQAPGKQREFVSAIRLHGVGTYYADSVKGRFTISRENAKNTVHLQMNNLKPEDTAVYYCAADRNWSRATEKEEYDYWGQGTQVTVS
B14: LaG94-1 (VHH)
VHH: QVQLVESGGGLVQTGDSLRLSCRASGLTLSVYSTGWFRQAPGKEHENVAWISRSGDETYYEDSVKGRFTISRDNAKNTVYLQMNDLKPEDMARYYCAASNRGRTTAWNLYIYRGQGTQVTVS
B15: LaG94-10 (VHH)
VHH: QVQLVESGGGLVQAGGSLRLSCAASGLTLRVYDVTWFRQAPGKEREFVGTVNRNGVVTDYADSVKGRFTISRDNPKNTIYLQMNSLKPEDTAVYYCAAKTRPKLSTLWDEYIYRGQGTQVTVS
B16: LaG94-4 (VHH)
VHH: DVQLVESGGGLVQAGGSLRLSCAASGDTSSIHFWEWYRQAPGKQRELVATANNGDFTHLQDSVKGRFTISKDNAKSTVYLQMNDLKPEDTAVYLCYARSYSNSNFWGQGTQVTVS
B17: LaG94-2 (VHH)
VHH: DVQLVESGGALVQAGGSLRLSCEFSGGTFNLYGIGWFRQAPEQDHEFVAGVSRYGSTYESVSVKGRFTSSRDNAKNSAYLEMNTLKPEDTGVYTCAATVREQVPTNFGSYIYRGQGTQVTVS
B18: LaG94-12 (VHH)
VHH: QVQLVESGGRLVQAGGSLRLSCAVSGGTFSLYSLGWFRQAPGKEREFVAAFSREDGTTSFADSVKGRFTMFRDGTKNTVYLQMNSLKQEDTAVYSCAATVRAQPSYSWSSYVYRGLGTQVTVS
B19: LaG94-8 (VHH)
VHH: QVQLVESGGGLVQAGGSLRLSCAASGRTFMNYAMGWFRQAPGKGREFVASISWTGETSTYADFVKGRFTISRDNAKNTVYLQMDSLKPEDTAVYRCAAKRATDFDDTVREAAEADYWGQGTQVTVS
B20: LaG94-5 (VHH)
VHH: QVQLAESGGGLVQAGGSLRLSCAASGRTFAMGWFRRAPGKEREFVASMSRSGLDTHYADSVKGRFTISRDNALNTVYLQTDSLKPEDTGDYFCAVGLRYWSLSGDYIRREKYDVWGQGTQVTVS
B21: LaG94-6 (VHH)
VHH: QVQLVESGGGAVQAGGSLRLSCAASGLTFSLYTMGWFRQAPEKEPEFVAYISKSGDTTTYADSVKGRFTIGRDNAKSTVYLQMNSLKSEDTAVYYCAASIKREITPNSIYRGQGTQVTVS
B22: GST-5 (VHH)
VHH: QVQLVESGGGLVQAGGSLRLSCVVTGRAFGAYAMGWFRQSPGKEREFVAAITWNGGTTNYADSVKGRFAISRDNPPNTVYLQMNSLKPEDTAVYYCAKYPNNFWHNEAPDSWGRGTQVTVS
notes: anti-GST nanobody; source: ArcticExpress (DE3) cells, purified from periplasm
B23: GST-6 (VHH)
VHH: QVQLVESGGGLVQPGESLRLSCAASGFTFSSHRMNWLRQAPGKGLEWVSTTSTGGGSAATYYVNSVKGRFTVSRDDAKNMLYLQMNSLKPEDTARYYCAIPESPGRPFGSTWSEYRYWGQGTQVTVS
notes: as for B22
B24: GST-3 (VHH)
VHH: QVQLVESGGGLVQPGGSLRLSCADSGRIFSDYTMAWFRQPPGKEREFVASINRSGLGTYYADSVKGRFTVTRDNAKNMVYLQMNSLTVEDTAVYYCGARWGGSYIDPREGMYDFRGQGTQVTVS
notes: as for B22
B25: GST-8 (VHH)
VHH: QVQLVESGGDLVQAGGSLRLSCAASGSISAAYDMGWFRQVPGKQRELVASLGSGGFSAYADSVKGRFTVSRDNAKNTVYLQMNSLKPEDTGVYYCAARTPFDIWTTGRWGEYDYWGQGTQVTVS
notes: as for B22
B26: GST-1 (VHH)
VHH: QVQLVESGGGLVQAGGSLRLSCVCVGRAFGVYAMGWFRQSPGKEREFVAAITWNGGSIDYADSVKGRFAISRDNPPNTVYLQMNSLKPEDTAVYYCAKYRNNYYNEAPNSWGQGTQVTVS
notes: as for B22
B27: GST-2 (VHH)
VHH: QVQLVESGGGLVQAGGSLRLSCVVVGRAFGAYAMGWFRQSPGKEREFVAAITWNGGSITYADSVKGRFAISRDNPPNTVYLEMNSLKPEDTAVYYCAKYTNNYYNEAPKSWGQGTQVTVS
notes: as for B22
B28: GST-4 (VHH)
VHH: QVQLVESGGGLVQAGGSLRLSCVCVGRAFGVYAMGWFRQSPGKEREFVAAITWNGGSIDYADSVKGRFAISRDNPPNTVYLQMNSLKPEDTAVYYCAKYRNNYYNEAPNSWGQGTQVTVS
notes: as for B22
B29: GST-7 (VHH)
VHH: QVTLVESGGGLVQAGGSLGLSCTASGHTFNPYAMAWFRQAPGKEREFVAAIGWRVGTTYYTDSVKGRFTISADNAKNTAYLQMNSLKPEDTAVYYCAAGFGRSPSNYDYWGQGTQVTVS
notes: as for B22

One assay has as its target tdTomato. The assay can be described thus: SPR; Biacore 8K; antigen immobilised on CM5 chip by amine coupling at 1 ug/ml (tdTomato) or 5 ug/ml (GST, IgGs) in 10 mM sodium acetate pH 5.5; nanobody injected in single-cycle kinetics at 0.1-10 nM; 20 mM Na-Hepes pH 7.4, 150 mM NaCl, 0.05% Tween 20; Langmuir 1:1 model, RIgG-1 and GIgG-4 fit to a two-step binding model.
Settings: not given
For the molecule B1, the Kd turned out to be 0.052 nM. For B2, the Kd turned out to be 0.044 nM.

In turn, B3 came in with a dissociation constant (Kd) of under 0.018 nM. B4 gave a Kd of 0.057 nM. On to B5, for which the Kd was 0.0035 nM.

Turning to B6, the Kd is 0.028 nM. Still for that read-out and setting: as for B7, the figure is 0.037 nM. Same read-out and setting: with B8 the figure was 0.0059 nM. With B9, the Kd came to 0.084 nM.

The next assay concerns the target GFP [GFP: P42212]. The assay can be described thus: SPR; GFP immobilised by EDC/NHS coupling (ProteOn XPR36, GLC chip, 5 ug/ml in 10 mM sodium acetate pH 5.0; or Biacore 8K, CM5 chip, 5 ug/ml, pH 5.5); nanobody as analyte; 20 mM Na-Hepes pH 7.4, 150 mM NaCl, 0.05% Tween 20; Langmuir binding model.
Settings: not given
For orientation: Surface plasmon resonance follows binding to a sensor surface in real time, without labels.
In the case of B10, the Kd was under 0.00014 nM.

As for B11, the Kd is 0.92 nM.

In turn, B12 registered a Kd of 0.13 nM. B13 had a Kd of 0.021 nM.

The molecule B14 returned a Kd of 0.016 nM. For the molecule B15, the Kd is 0.009 nM.

With B16, the Kd stood at 3.7 nM.

In turn, B17 showed a Kd of 27 nM. Consider B18, for which the Kd worked out at 0.3 nM. The molecule B19 displayed a Kd of 0.21 nM. The molecule B20 showed a Kd of under 0.00089 nM. The molecule B21 came in with a Kd of 0.083 nM.

The target of the next assay is T1, GST (Schistosoma japonicum (assumed, …, UniProt P08515 = GST)).
T1 construct: GST (glutathione S-transferase), the expression fusion protein tag; the methods describe only the production of GST-TEV protease; the 'GST' immobilised for SPR may be that fusion
T1 sequence (P08515 whole entry, looked up, the tested form may be a part): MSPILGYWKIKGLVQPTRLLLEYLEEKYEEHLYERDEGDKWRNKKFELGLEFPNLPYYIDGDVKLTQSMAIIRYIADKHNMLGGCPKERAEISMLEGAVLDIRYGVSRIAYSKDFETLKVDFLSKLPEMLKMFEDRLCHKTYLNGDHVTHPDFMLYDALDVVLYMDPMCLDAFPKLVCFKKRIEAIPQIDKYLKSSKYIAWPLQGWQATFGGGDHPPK
The assay can be described thus: SPR; Biacore 8K; antigen immobilised on CM5 chip by amine coupling at 1 ug/ml (tdTomato) or 5 ug/ml (GST, IgGs) in 10 mM sodium acetate pH 5.5; nanobody injected in single-cycle kinetics at 0.1-10 nM; 20 mM Na-Hepes pH 7.4, 150 mM NaCl, 0.05% Tween 20; Langmuir 1:1 model, RIgG-1 and GIgG-4 fit to a two-step binding model. The note with it: both partners purified.
Turning to B22, the Kd turned out to be 0.13 nM.

B23 came in with a Kd of 0.15 nM.

B24 yielded a dissociation constant (Kd) of 0.35 nM. In turn, B25 displayed a Kd of 0.13 nM. The molecule B26 showed a Kd of 0.085 nM. Turning to B27, binding was characterised by a dissociation constant (Kd) of 0.064 nM. In the case of B28, the Kd was 0.26 nM.

Consider B29, for which the Kd was found to be 0.17 nM.
